The results in this text go back to paper PMC2119460.

For this assay, the target named is H-2Db class I MHC molecule on the surface of RMA-S cells (mouse (endogenous in RMA-S)).

The substance influenza NP (365-380) peptide displayed a fold increase in H-2Db reactivity (mAb 28.14.8) after peptide treatment of 2 fold.
